Drawing on paper PMC4052767, this text covers Kd for 4 substances.

pKd: −log10 of the molar value.

The target in the experiment is Hat1p/Hat2p/H4_(1-48) complex (yeast (Saccharomyces cerevisiae) | yeast) (UniProt Q12341). Put plainly: ITC.
Hat1p/Hat2p/H4_(1-48) complex (yeast (Saccharomyces cerevisiae) | yeast), sequence (Q12341 1-320, chain 1 of 3): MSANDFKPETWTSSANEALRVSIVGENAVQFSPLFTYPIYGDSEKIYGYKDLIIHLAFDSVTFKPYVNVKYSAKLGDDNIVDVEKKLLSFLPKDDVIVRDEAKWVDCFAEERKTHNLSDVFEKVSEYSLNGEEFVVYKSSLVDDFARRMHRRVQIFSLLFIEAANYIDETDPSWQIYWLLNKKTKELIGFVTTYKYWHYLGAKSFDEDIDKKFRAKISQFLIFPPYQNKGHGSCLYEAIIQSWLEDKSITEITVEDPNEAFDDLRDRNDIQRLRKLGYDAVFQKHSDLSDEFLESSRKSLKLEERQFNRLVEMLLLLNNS
Hat1p/Hat2p/H4_(1-48) complex (yeast (Saccharomyces cerevisiae) | yeast), sequence (P39984 whole entry, chain 2 of 3, further chain): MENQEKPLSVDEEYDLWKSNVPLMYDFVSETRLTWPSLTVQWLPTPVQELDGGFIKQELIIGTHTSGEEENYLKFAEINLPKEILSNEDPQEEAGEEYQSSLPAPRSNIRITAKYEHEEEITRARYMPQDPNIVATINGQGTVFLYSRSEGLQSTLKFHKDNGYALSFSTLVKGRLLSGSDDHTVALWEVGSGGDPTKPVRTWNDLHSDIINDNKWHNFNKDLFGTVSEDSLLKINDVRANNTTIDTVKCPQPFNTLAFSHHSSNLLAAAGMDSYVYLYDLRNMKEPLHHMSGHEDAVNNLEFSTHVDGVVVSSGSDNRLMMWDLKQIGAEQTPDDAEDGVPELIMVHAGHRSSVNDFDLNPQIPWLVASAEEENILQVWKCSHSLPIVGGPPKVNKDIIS
Hat1p/Hat2p/H4_(1-48) complex (yeast (Saccharomyces cerevisiae) | yeast), sequence (P02309 2-49, chain 3 of 3, further chain): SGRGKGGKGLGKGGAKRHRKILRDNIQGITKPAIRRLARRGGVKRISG

Broadly, the pKd is the negative decadic logarithm of the Kd, by convention in mol/L. The low end stands for a high Kd, the high end for a low Kd. For H3K4me1 peptide, the negative-log Kd (pKd) is 5.61.

The substance H3K4me3 peptide showed a pKd of 4.93. “H3 peptide (residues 1-15), unmodified (from UniProt P61830 2-16)” had a pKd of 6.47. This pKd is 1.54 log units higher than that of the substance before. As for H3K4me2 peptide, the figure is 5.32.
